Results on 1 molecule are retold here after patent publication CN109750002A.

The target in assay [1] is 人BTN3A3 (Butyrophilin subfamily 3 member A3), membrane form on cells (BT474-BTN3A3 overexpressing cells) (human) (UniProt O00478). Description: adhesion assay by flow cytometry on BT474-BTN3A3 cells, with 5E08 mixed 1:1 (molar) with LSECtin as blocker. (In flow cytometry, cells or beads pass a laser one at a time.)
For assay [2] the target is unchanged. Description: adhesion assay by flow cytometry on BT474-BTN3A3 cells, with control human IgG; LSECtin-positive ZSG-positive cells / ZSG-positive cells.

UniProt O00478, sequence (O00478 30-584): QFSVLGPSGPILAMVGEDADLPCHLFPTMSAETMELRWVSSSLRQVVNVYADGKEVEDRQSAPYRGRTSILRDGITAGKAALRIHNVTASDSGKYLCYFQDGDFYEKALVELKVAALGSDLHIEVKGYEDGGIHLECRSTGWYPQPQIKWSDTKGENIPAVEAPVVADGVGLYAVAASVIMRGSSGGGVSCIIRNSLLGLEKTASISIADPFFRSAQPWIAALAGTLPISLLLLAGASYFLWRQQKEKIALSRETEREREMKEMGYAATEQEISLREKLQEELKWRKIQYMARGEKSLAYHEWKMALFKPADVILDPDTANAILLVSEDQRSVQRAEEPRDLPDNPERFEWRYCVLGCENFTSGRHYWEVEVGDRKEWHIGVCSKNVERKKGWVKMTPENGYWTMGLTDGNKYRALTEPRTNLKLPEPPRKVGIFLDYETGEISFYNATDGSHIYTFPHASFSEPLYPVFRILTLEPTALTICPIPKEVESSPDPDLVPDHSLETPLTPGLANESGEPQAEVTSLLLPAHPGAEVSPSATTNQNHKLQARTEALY

B1: LSECtin蛋白 (Liver Sinusoidal Endothelial Cells lectin) (ligand, UniProt Q6UXB4 53-293, looked up)
chain: LSKASTERAALLDGHDLLRTNASKQTAALGALKEEVGDCHSCCSGTQAQLQTTRAELGEAQAKLMEQESALRELRERVTQGLAEAGRGREDVRTELFRALEAVRLQNNSCEPCPTSWLSFEGSCYFFSVPKTTWAAAQDHCADASAHLVIVGGLDEQGFLTRNTRGRGYWLGLRAVRHLGKVQGYQWVDGVSLSFSHWNQGEPNDAWGRENCVMMLHTGLWNDAPCDSEKDGWICEKRHNC
In the case of B1, the values for the LSECtin粘附率 in assay [1] and in assay [2] were 1.4% and 16.1%, respectively.
